The values that follow come from PMC4687910, “Thermostabilization of the Human Serotonin Transporter in an Antidepressant-Bound Conformation” (PLoS ONE, 2015).

In the data set the test system is T1, NCCc1c[nH]c2ccc(O)cc12.
T1 construct: wild-type hSERT expressed in HEK293S cells
Description: cells, lysate or membranes. It counts as cell-based, Homo sapiens. Particulars: Na+ and Cl-.

For “human serotonin transporter (hSERT) (Homo sapiens)”, the Km amounted to 3.4 µM.

Broadly, the Km is the concentration of substrate that gives half-maximal velocity.
